Assay: label from the status in PepcDB records

For “MHLQPQKKKKHLQTFLHPQQTQVLQTICLQPRQKGRVDSQLIVLQAQQQQALQVPVEAVNCSENMRRLSISEDFSKALQILYNLGKISDNRESFDNTXFYEENLGKALRVNDNTVKPSAPVSTQESLRTVELTEGFRHQCIFDFCRRRDILRYFFDPIKANLSKGHGSNFDKSDSVACTLHPYTPYPHLQQLWVYYMLTYTQYLPLRLVGGQNRCEGRLEVRHEGEWGTVCDDRWNIKNARVVCRLLGCGPALGAPGRSHFGPGTGPILMNEVRCSGREDSLESCAHAGWTRHNCHHREDASVICAGPADSLVPKDNAQLSCLPHLFQAVIDRGYLRRLGYSSWDIHLNDKMCRPQVTGRYLIFNIPYGHCGTVMQKHQGSLSYSNSIRGRTQGHPGRVIVRHKVPQVKFTCKVDGQSAVEIVHGSDTKDEASYDVSISFLQSPVSQNTGGRAPLASQREEVFLQATLHSHNPNLRLVVDTCVASPDASDFTTVKYDLIQEGCIKDNSYSNLHAPEKNVAQFKFNAFSFLKSYDVVYVQCKVAVCRLGDHSSRCSQGCLNRGRRGAGSAEVREEQTEYFQTVGPLKIHREANQSKVLV”, the protein production was “failed”.

For “MEDHHHLPENLKPFFHRATEAQERLAKLEAALASTKTDIPDAKLVEENKQLQSKLEEANATVKQEQTKVKDLTIENAKHKYRILHLVRALKDADQKLERLSK”, the protein production was “failed”.

With “MEDSGAILCQISIFKDMLDQVNREIEANIQVTREIESQIGACSEIESSLSLKEPELTRSFLASQFEISGLISVTADSRNSLKLLEDEICCLRSEHSELITKTNREAVNINNCIVLDFV” the protein production was “failed”.

For “MSLRVIDTHCDALYKLQAGKGKYTFQDAEELDVNFERLIEAKMLLQGFAIFLDEDIPVEHKWKKAVEQVNIFKQHVLHKGGIIHHVKKWCDLENLPEDKIGAMLTLEGIEPIGRDLDKLTQLLDGGVLSVGLTWNNANLAADGIMEERGAGLTRFGKDIIHLLNERKVFTDVSHLSVKAFWETLEQAEFVIASHSNAKAICSHPRNLDDEQIKAMIEHDAMIHVVFYPLFTTNNGVADTEDVIRHIDHICELGGLKNIGFGSDFDGIPDHVKGLEHVGKYQSFLETLEKHYTKEEIEGFASRNFLNHLPKEGHHHHHH”, the protein production was “not failed”.

For “RVTVMLAAFEGWNDAGEAASDALHYLNKLWDGKKVATVDAEEYYDFQFTRPTVRRTSSGARKVKWPSTRIYKAEVPDSNVDVVLVLGTEPSYRWRAYTTELLVHAEALKVDSVILVGALLADVPHSRPIPVSTTTEDSSLRERLNLEASQYEGPVGIVGVLAEFAMLAGLPTVSLWAAVPHYVAQPPSPKAQLAILHRIEDLLQVPLDSQALAEESEAWERGVDELATEDPEITAYVRQLEEAKDTADLPE”, the protein production was “not failed”.

For “MASRLGKKRLFLVWSCLVSILPGMAQTEKLIDYVNPFVGTDGYGNVYPGAQIPFGGIQMSPDTDSKYYDAASGYKYNHSTLLGFSLTHLSGTGIPDLGDFLFIPGTGEMKLDPGTREEPEKGYRSRYSHEKEWASPNYYAVELSDYGVKAEMTSGVRSGMFRFTYPQSDKAFIMIDMNHTLWQSCEWANLRMENDSTITGYKLVKGWGPERHIYFTATFSKKLTGLRFMQNKKPVIYNTSRFRSSYEAWGKNLMACISFDTKAGEEVIVKTAISSVSTNGAKNNMAELAGLAFDELKAKGEALWEKELGKYTLTADRKTKRTFYTSAYHAALHPFIFQDVDGQFRGLDKNIEKAEGFTNYTVFSLWDTYRALHPWFNLVQQEVNADIANSMLAHYDKSVEKMLPVWSFYGNETWCMIGYHAVSVLADMIVKGVKGFDYERAYEAMKTTAMNPNYDCLPEYRMMGYVPFDKEAESVSKTLEYAYDDYCMAQAAKALGKEDDYRYFLNRALSYQTLIDPETKYMRGKDSQGNWRTPFTPVAYQGPGSVNGWGDITEGFTVQYTWYVPQDVQGYINEAGENWFRNRLDELFTVELPDDIPGAHDIQGRIGAYWHGNEPCHHVAYLYNYLKEPWKCQKWVRTIADRFYGDTPDALSGNDDCGQMSAWYMFNCIGFYPVAPSSNMYNIGSPCVEAITVRMSNGKVIEMVADNWSPKNVYVKELYVNGKKYDKSYLKYEDIRDGVKLRFVMSSKPNYKRAVSDEAVAPSLSLPGKTMKYQANFSEKKKSGNPVFKGWYADPEGVVFGDEYWIYPTYSAPYDEQTFMDAFSSKDLVNWTKHPKVISKENISWLRRALWAPAVLSANDKYYLFFGANDIQNNNEVGGIGVATSDSPAGPFKDALGKPLIDKIVHGAQPIDQFVFKDDDGQYYMYYGGWGHCNMVKMAPDLLSIVPFEDGTMYKEVTPENYVEGPFMLKRNGKYYFMWSEGGWGLPNYSVAYSISDSPFGPFKRVGKILEQDLSVATGAGHHSVIKGAGEDEWYIVYHRRPLGETAANSRATCIDRMYFDENGYIKPVKMTFEGVLPSPLDSTK”, the protein production was “failed”.

In the case of “MSKAIVLDSHLKEKGSVELPKRYESINSHNLYLYVKHYLSSARANTAKSKNRAEVSGGGRKPWAQKGGGRARAGSITSPVFVGGGVSHGATNNRNYNLKINKKQKRLALEYALEEKAQANKLFVVEKIAIKGVVEDNKRKHLTKEANQMFQALEQRDTLFVCMNMDEYTELAFSNLKKCLIVDVSELNAYLLAAFSSVVMEEAAFQHVVQDKTEE”, the protein production is reported as “failed”.

In the case of “MSSGKDFFVHSHALCESENIGKDSRVWAFAHILPGARLGSECNVCDNVFIENDVIIGDRVTLKCGVQVWDGITIEDDVFIGPNATFTNDLFPRSKVYPQTFARTIIRKGASLGANCTILPGITIGINAMVGAGAVVTRSVPPNAIVVGNPAKIIGYVDAKPVNANSETRAEQKAPGVTATSVKNVTLHTMNEVADIRGSLSAGEFERSVPFKTERYFLVYDVPTAETRGEHAHRICHQFLVAVKGSVHVVADDGVNREEFILDKPNQGIHLPPMTWGIQYRYSQDAVLLVFASHYYDAGDYIRNYEEFKSLIANAELEHHHHHH”, the protein production is reported as “not failed”.

With “MTVVTFLAFLIPILVLAAIGGVVWWFWMKLRYKTARSNEALIIAGPKLGDPKKETNIFTDNEGRSIKIIRGGGHLLKMHQTATPVDLTSFQLKLTTPRVFTNGGVPIIADAVAMVTVSDTLKGIAIYAEQFLGKEQKEIESEISEVLNANLRAILSKMTVEQINEDREGFNLQVTEVAQKQLDSMGFKITSLGLQDLRDADKENGYLENLGRPRIAEVRKRAEIAESNSDKETRIHKANNDKEAKEQEFQRKIEIAAALKEKDLKDAAIKEETERARAKAEQSYLLEKAKLDKEVQEEELQLLARKKEEELRIKHLERERAVKLEEEEAKVRRAKADADFYETTRKAEADAEKARIEGETKARIKREEGLAEAEVIRKRGEAEAEAKRLLAEAIAKHGEVIIIEKLIEMLPQFAESISKPLSNIESVKIIDTGNGNGVSSYSKSITNTMAQIQEPLKELTGLDVSKLLTDLVNRGNTHTVVRTEAVPTDHHGSPVAASTESEEPVEDQPLENSDSEEKLEHHHHHH” the protein production was “not failed”.

For “QDISQRKKEQEALAESESRFQELADLLPQPVFELDMKGNIIYTNSLGFQAFGYTKDDLEKGVSSLALFVPEDRETVLQNIENRLKNIPFENHEYTALRKDGTTFPILIYTARINRGGVPVGIRGIVLDITDRKQAEENLVQLNQNLELRVEERTRELEVTHQQMILQEKLASIGQLAAGIAHELNNPINFVRINFATLQEDVSDLHTLLKEYRLVTEKLEDR”, the protein production was “failed”.

In the case of “VDIMLNTADISAAAILLPVEGAQLSELRQIPAEGGPVLHMLRLDSPQFSQFGEIYFSEVLPRRVKAWKRHSLMTQLFAVPVGCIHVVLYDGREKSPTSGRLAQVTLGRPDNYRLLRIPPQVWYGFAATGDTPALVANCTDIPHRQGESERAPQDAPFIPFSWAGADLSGTPVM”, the protein production is reported as “not failed”.

For “MYEIPWSKPVNINMLDGRCRTVVGPLDAMHCLQSEWPVRDGAYYGCAIRACNAALKRRKRPEDARAAFIAALREAFLTVVPMQEEGHGPRPLE”, the protein production was “not failed”.

In the case of “MGHHHHHHSHRPESFFQQSFQRLSRLGHGSYGEVFKVRSKEDGRLYAVKRSMSPFRGPKDRARKLAEVGSHEKVGQHPCCVRLEQAWEEGGILYLQTELCGPSLQQHCEAWGASLPEAQVWGYLRDTLLALAHLHSQGLVHLDVKPANIFLGPRGRCKLGDFGLLVELGTAGAGEVQEGDPRYMAPELLQGSYGTAADVFSLGLTILEVACNMELPHGGEGWQQLRQGYLPPEFTAGLSSELRSVLVMMLEPDPKLRATAEALLALPVLRQPRAWGVLWCMAAEALSRG”, the protein production is reported as “failed”.

In the case of “MIPMEELKVKKITNGTVIDHIDAGKALMVFKVLNVPKETSVMIAINVPSKKKGKKDILKIEGIELKKEDVDKISLISPDVTINIIRNGKVVEKLKPQIPDEIEGTLKCTNPNCITNKEKVRGKFKIESKNPLKIRCYYCEKFLNEVIFE”, the protein production is reported as “not failed”.

In the case of “MGTKERILEVSKELFFEKGYQGTSVEEIVKRANLSKGAFYFHFKSKEELITEIIERTHKKIISLFEENKEKTPEELLEMFLEVLYREKKVVYIFLFDLLCSEKFRNIYFEKIEDAKRRFEKFLEKHFPSKAEILSEIILGFLRQLILHYVIKEERELPFLKEKLREGLKLIFEGVKKCG”, the protein production is reported as “not failed”.

With “MQDTPQRGQRSKVRWLVAGLMWAAIAINYIDRTVLSAAAPHIQKEFHLSAVEMGVVMSAFFWSYALLQLPAGILADRFGQKKVLGFAVLWWSLATAVTGLATGFKSLVGLRVALGVGEAGAYPSNAGITSRWFPKQERATVAAIFDSGSKLGSAIALPLIAWLLVTFDWKITFTVAGSLGIVWCVVWALVFRDSPAEHEGVNAAELAHIQKGLPPARGADAPAMPWTKLLTHRNVWAMCIGFFMINYNSYFFITWLPTYLVKERGMGLMEMGFMASLPLFVSMFVEVFAGWASDRVYASGRLSLTATRKLFLVIGLVMASSIGLAAFAQSAVVAVILLCIAKSGTTVAASQVWALPADVAPGNTVSMVAGLQNSVSNMGGVVGPIVTGAIVGATGSFIPALVFSAALIGLAILNYLFLLGKVEPIAFEPNPATLNPNSHGRSNADARA” the protein production was “failed”.

In the case of “MSLDARFDIAHLARAELFSPKPQETLDFFTKFLGMYVTHREGQSVYLRGYEDPYPWSLKITEAPEAGMGHAAMRTSSPEALERRAKSLTDGNVDGTWSEDQFGYGKTFEYQSPDGHNLQLLWEAEKYVAPPELRSKILTRPSKKPLQGIPVKRIDHLNLMSSDVTAVKDSFERHLGFRTTERVVDGNVEIGAWMSSNLLGHEVACMRDMTGGHGKLHHLAFFYGTGQHNIDAVEMFRDYDIQIEAGPDKHGITQSQFLYVFEPGGNRIELFGEAGYLHLDPDAETKTWQMSDIDTGLAVGGAKLPWESYFTYGTPSPLSLDQHIEKYAHFGEGHHHHHH”, the protein production is reported as “not failed”.

With “MSNFFKQTLASLLGTLLGLFLFAGAGTTGLLLLLFAAASSSNTGPVVKDKSVVVFDLSMNITDREPSAGEELQNRFSGVTQERMTLRNVIDSLEKAQRDKRIVAIYLDGSRGGNNLGFASLKEIRKALEEFRKSGKKVIAYGVAWDEKEYYLSSVADTIALNPLGGLEINGLSSQPMFLAGALQKYGIGVQVVRAGKFKGAVEPFLLDKLSPENREQTQKLLDDVWGEWRTTVGNSRKINPQKLQAIADNQSLLEATEAKTNGLVDQVAYNDQVVADLKKLTGSNKKDNTFTQISLRRYAQVPGQSLGLEKNSKNKIAVVYAEGDIVDGKGDDGQIGGDRFARIFNKIRQDENVKAVVLRINSPGGSATASEVMQREIRLTRESKPVVVSMGDYAASGGYWIATDSNRIFAEPNTITGSIGVFGVLFNGQKLANDNGITWDAVKTARYADSQTVARPKSPQEIAIYQRSVDRIYNMFVNKVAQGRKLPTQKVAEIAQGRVWSGVTAKQIGLVDEIGGLNAAIEYAAKAAKLGKDWQLREYPRESSFEERFFGGVVEEISTTLGIKKLDVKPNDPLTVQIQKIQQEISILQTMNDPQGVYARLPINLKIE” the protein production was “failed”.
